Residue numbers refer to the chain shown, from its start.
How the values were obtained:
Experiment in all cases: pull-down
[1] = molecular target: T1, MBP-ORC1 R105Q (human, UniProt Q13415 1-861, R105Q)
T1 sequence: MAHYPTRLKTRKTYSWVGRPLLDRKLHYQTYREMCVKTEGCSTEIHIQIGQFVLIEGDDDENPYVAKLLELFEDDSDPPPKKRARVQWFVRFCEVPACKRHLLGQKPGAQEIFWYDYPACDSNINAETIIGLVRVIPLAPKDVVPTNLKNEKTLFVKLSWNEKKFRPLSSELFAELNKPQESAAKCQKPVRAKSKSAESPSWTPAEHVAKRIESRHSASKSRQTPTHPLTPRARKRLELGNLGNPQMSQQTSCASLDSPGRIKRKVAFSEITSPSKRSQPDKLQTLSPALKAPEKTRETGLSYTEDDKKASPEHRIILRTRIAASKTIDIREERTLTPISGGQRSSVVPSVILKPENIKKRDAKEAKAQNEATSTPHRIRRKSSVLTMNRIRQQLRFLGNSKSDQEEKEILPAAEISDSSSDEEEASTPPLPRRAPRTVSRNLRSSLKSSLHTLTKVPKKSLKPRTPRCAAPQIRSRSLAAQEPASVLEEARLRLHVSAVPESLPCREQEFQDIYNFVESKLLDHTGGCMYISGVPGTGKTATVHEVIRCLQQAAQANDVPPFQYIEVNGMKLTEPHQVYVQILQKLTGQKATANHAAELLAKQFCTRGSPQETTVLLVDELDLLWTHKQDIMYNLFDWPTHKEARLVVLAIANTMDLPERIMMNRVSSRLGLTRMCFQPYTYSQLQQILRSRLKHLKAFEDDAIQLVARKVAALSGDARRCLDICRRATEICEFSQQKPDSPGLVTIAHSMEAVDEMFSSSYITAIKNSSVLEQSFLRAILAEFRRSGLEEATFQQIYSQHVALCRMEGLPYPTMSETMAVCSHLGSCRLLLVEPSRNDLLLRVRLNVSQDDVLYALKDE

[2] = molecular target: T2, MBP-ORC1 CDK123 (human, UniProt Q13415 1-861, S258A | S273A | T375A)
T2 sequence: T1 sequence with Q105R, S258A, S273A, T375A

[3] = molecular target: T3, MBP-ORC1 CDK3 (human, UniProt Q13415 1-861, T375A)
T3 sequence: T1 sequence with Q105R, T375A

Measured: binding result

B1: GST-CDC6 (natural protein)
chain: MPQTRSQAQATISFPKRKLSRALNKAKNSSDAKLEPTNVQTVTCSPRVKALPLSPRKRLGDDNLCNTPHLPPCSPPKQGKKENGPPHSHTLKGRRLVFDNQLTIKSPSKRELAKVHQNKILSSVRKSQEITTNSEQRCPLKKESACVRLFKQEGTCYQQAKLVLNTAVPDRLPAREREMDVIRNFLREHICGKKAGSLYLSGAPGTGKTACLSRILQDLKKELKGFKTIMLNCMSLRTAQAVFPAIAQEICQEEVSRPAGKDMMRKLEKHMTAEKGPMIVLVLDEMDQLDSKGQDVLYTLFEWPWLSNSHLVLIGIANTLDLTDRILPRLQAREKCKPQLLNFPPYTRNQIVTILQDRLNQVSRDQVLDNAAVQFCARKVSAVSGDVRKALDVCRRAIEIVESDVKSQTILKPLSECKSPSEPLIPKRVGLIHISQVISEVDGNRMTLSQEGAQDSFPLQQKILVCSLMLLIRQLKIKEVTLGKLYEAYSKVCRKQQVAAVDQSECLSLSGLLEARGILGLKRNKETRLTKVFFKIEEKEIEHALKDKALIGNILATGLP
binds: [1] | [2] | [3]

From article doi:10.1101/681668 (bioRxiv, 2019)
